What was measured:
PDGF-BB [1] = target: T1, PDGF-BB (Homo sapiens, UniProt P01127); experiment: Equilibrium binding of PDGF-BB to FN, FN domains and peptides
Excerpt: (§1) This led us to speculate that PDGF was binding to the engineered ECM through the H or HV domain since vascular endothelial GF (VEGF), a member of the PDGF superfamily, had been reported to bind H and remain active while bound.
(§2) The survival of FN-null fibroblasts in the presence to PDGF-BB required substrate coated with intact FN or FNIII8-11+a PDGF-binding FN domain. […] To address this directly, we performed equilibrium binding assays with PDGF-BB to FN adsorbed to a surface or coupled to agarose beads. In addition, we also investigated the ability of other growth factors to bind intact FN.

PDGF-BB [2] = target: T1, PDGF-BB; experiment: Surface plasmon resonance kinetic binding of PDGF-BB to FN domains; details: for Kd: kinetic binding
Excerpt: VEGF, TGF-β1, PDGF-BB and FGF-2 bound IIICS with similar affinities (KD˜10^−7 M). […] The tested biological activities of GFs bound to a FN functional domain were retained or enhanced. […] In addition, our studies provide important information regarding the delivery of GFs and the sequestering of GFs, as appropriate, for therapeutic (e.g., surgical) or aesthetic indications, including wound healing treatments (where an aim is GF delivery) and cancer treatments (where an aim is GF sequestration). Where FN fragments are used to deliver GFs, they may be described as maintaining, activating, stabilizing or enhancing GF activity. […]

TGF-β1 [3] = target: T2, TGF-β1 (Homo sapiens, UniProt P01137); experiment: Equilibrium binding of TGF-β1 to FN, FN domains and peptides
Experimental: These peptides represent domains that follow the sequence pattern [QN]-X(1,2)-[ST]-X(0,1)-[IG]-[QS]-[KRQ]-[YTM]-[IG]-X(4,5)-X(0,1)-[KR]-X(1,2)-X(1,2)-[RT]-X(1,2)-[KQTS]-X(2)-T and that bind TGF-β1 with a certain affinity. […] We know of no other peptides in the human genome database that follow this pattern.
(§3) To determine whether FN domains bind TGF-β1 and bFGF, equilibrium and kinetic binding was performed.

TGF-β1 [4] = target: T2, TGF-β1; experiment: Plasmon surface resonance kinetic binding of TGF-β1 to FN domains; details: for Kd: plasmon (surface) resonance, kinetic binding
Excerpt: (§4) VEGF, TGF-β1, PDGF-BB and FGF-2 bound IIICS with similar affinities (KD˜10^−7 M). […] The tested biological activities of GFs bound to a FN functional domain were retained or enhanced. […] In addition, our studies provide important information regarding the delivery of GFs and the sequestering of GFs, as appropriate, for therapeutic (e.g., surgical) or aesthetic indications, including wound healing treatments (where an aim is GF delivery) and cancer treatments (where an aim is GF sequestration). Where FN fragments are used to deliver GFs, they may be described as maintaining, activating, stabilizing or enhancing GF activity.
as §3

bFGF = bFGF (Homo sapiens, UniProt P09038); experiment: Equilibrium binding of bFGF (FGF-2) to FN, FN domains and peptides; details: method not specified (equilibrium and kinetic binding performed); read-out: KD, bFGF binding
Experimental: as §2, §3

[5] = test system: mouse fibroblasts null for FN (FN−/−); experiment: Survival of FN-null fibroblasts on FN domains with PDGF-BB; format: cell-based; details: for FN-null cell survival / proliferation with PDGF-BB: FNIII8-11 + the named domain, or named protein
Excerpt: To further investigate the response of cells to PDGF-BB bound to FN domains, we investigated the survival response of mouse fibroblasts null for FN (FN−/−). First we determined the response of FN-null cells to PDGF-BB in the absence of serum or other sources of exogenous FN. […] […] […] Importantly, differential response of FN-null cells, plated on different FN domains, to PDGF-BB was not secondary to differences in attachment as judged by cell counts two hours after plating. The FNIII8-11 central cell binding domain was present in all circumstances.

FGF-2 = FGF-2 (Homo sapiens, UniProt P09038); experiment: Plasmon resonance binding of FGF-2 to FN domains
Excerpt: as §4

VEGF = experiment: Plasmon resonance binding of VEGF to FN domains
Excerpt: as §4

EGF = EGF (Homo sapiens, UniProt P01133); experiment: Binding of EGF to FN, FN domains and peptides
Excerpt: as §4, §2, §3

GFs = experiment: Growth factor binding to FN domains (GFs in general)
Excerpt: as §1

fibroblast chemotaxis = experiment: Fibroblast chemotaxis to GFs in the presence or absence of FN domains; format: cell-based; details: in solution
Experimental: To determine whether FN functional domains modulated TGF-β1, bFGF or PDGF-BB activity in solution, fibroblast chemotaxis was performed in response to the GFs in the presence or absence of FN domains.

[6] = method not specified (equilibrium and kinetic binding performed)

T2 sequence (P01137 279-390 limits assumed, species assumed): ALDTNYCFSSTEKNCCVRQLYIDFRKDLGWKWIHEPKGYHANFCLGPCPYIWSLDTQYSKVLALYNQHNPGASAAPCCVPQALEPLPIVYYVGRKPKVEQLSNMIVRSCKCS
T1 sequence (P01127 82-190 limits assumed): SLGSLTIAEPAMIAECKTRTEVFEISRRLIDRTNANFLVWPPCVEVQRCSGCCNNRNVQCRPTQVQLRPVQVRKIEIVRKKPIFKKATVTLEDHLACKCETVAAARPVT
FGF-2, sequence (P09038 143-288): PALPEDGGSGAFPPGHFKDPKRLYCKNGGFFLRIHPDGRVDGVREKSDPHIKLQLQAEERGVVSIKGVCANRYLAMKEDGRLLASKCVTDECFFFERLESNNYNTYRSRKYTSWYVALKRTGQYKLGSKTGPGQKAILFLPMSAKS
bFGF, sequence (P09038 143-288): as above
EGF, sequence (P01133 971-1023 limits assumed, species assumed): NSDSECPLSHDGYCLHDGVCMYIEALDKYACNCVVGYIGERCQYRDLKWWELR

Molecule	Kd (PDGF-BB [1])	Kd (PDGF-BB [2])	Kd (TGF-β1 [3]; [6])	Kd (TGF-β1 [4])	Kd (bFGF)	FN-null cell survival / proliferation with PDGF-BB [5]	Kd (FGF-2)	Kd (TGF-β1 [3]; equilibrium binding)	enhancement of chemotactic activity of TGF-β1, bFGF and PDGF-BB (fibroblast chemotaxis)	PDGF-BB binding (in words) (PDGF-BB [2])	other results
FNIII12-14: recombinant FN type III repeats 12-14, heparinII-binding domain (protein) MGSAIPAPTDLKFTQVTPTSLSAQWTPPNVQLTGYRVRVTPKEKTGPMKEINLAPDSSSVVVSGLMVATKYEVSVYALKDTLTSRPAQGVVTTLENVSPPRRARVTDATETTITISWRTKTETITGFQVDAVPANGQTPIQRTIKPDVRSYTITGLQPGTDYKIYLYTLNDNARSSPVVIDASTAIDAPSNLRFLATTPNSLLVSWQPPRARITGYIIKYEKPGSPPREVVPRPRPGVTEATITGLEPGTEYTIYVIALKNNQKSEPLIGRKKTTSHHHHHHC	35 nM	55 nM	7.6 nM	7.6 nM	1.9 nM	enhance survival					FN-null cell survival with PDGF ([5]; plastic precoated with 0.15 μM GST-tagged FNIII8-11 ± the named domain, or named protein, PDGF-BB added 1 day after plating, 3 days): increased survival
FNIII12-15: heparin II binding domain of FN (protein) MGSTIPAPTDLKFTQVTPTSLSAQWTPPNVQLTGYRVRVTPKEKTGPMKEINLAPDSSSVVVSGLMVATKYEVSVYALKDTLTSRPAQGVVTTLENVSPPRRARVTDATETTITISWRTKTETITGFQVDAVPANGQTPIQRTIKPDVRSYTITGLQPGTDYKIYLYTLNDNARSSPVVIDASTAIDAPSNLRFLATTPNSLLVSWQPPRARITGYIIKYEKPGSPPREVVPRPRPGVTEATITGLEPGTEYTIYVIALKNNQKSEPLIGRKKTGQEALSQTTISWAPFQDTSEYIISCHPVGTDEEPLQFRVPGTSTSATLTGLTRGATYNVIVEALKDQQRHKVREEVVTVGNSVNEGTSHHHHHHC	6.8 nM	68 nM	16 nM	16 nM	130 nM		170 nM				
FNIII12-V15: composite heparinII-binding and variably-spliced IIICS domains (protein) MGSAIPAPTDLKFTQVTPTSLSAQWTPPNVQLTGYRVRVTPKEKTGPMKEINLAPDSSSVVVSGLMVATKYEVSVYALKDTLTSRPAQGVVTTLENVSPPRRARVTDATETTITISWRTKTETITGFQVDAVPANGQTPIQRTIKPDVRSYTITGLQPGTDYKIYLYTLNDNARSSPVVIDASTAIDAPSNLRFLATTPNSLLVSWQPPRARITGYIIKYEKPGSPPREVVPRPRPGVTEATITGLEPGTEYTIYVIALKNNQKSEPLIGRKKTDELPQLVTLPHPNLHGPEILDVPSTVQKTPFVTHPGYDTGNGIQLPGTSGQQPSVGQQMIFEEHGFRRTTPPTTATPIRHRPRPYPPNVGEEIQIGHIPREDVDYHLYPHGPGLNPNASTGQEALSQTTISWAPFQDTSEYIISCHPVGTDEEPLQFRVPGTSTSATLTGLTRGATYNVIVEALKDQQRHKVREEVVTVGNSVNEGTSHHHHHHC	21 nM	17 nM			37 nM	enhance survival	37 nM	97 nM	enhanced the chemotactic activity		Kd (VEGF): 0.6 nM; EGF binding (in words) (EGF): all GFs, except EGF, bound; GF binding on addition of salt or acid (GFs; up to 2.5 M NaCl added or pH lowered to about 2.0): failed to demonstrate any diminution; chemotactic activity when assayed alone (fibroblast chemotaxis): no chemotactic activity
FNIII3-6: recombinant FN type III repeats 3-6 (protein) MGSAPDAPPDTTVDQVDDTSIVVRWSRPQAPITGYRIVYSPSVEGSSTELNLPETANSVTLSDLQPGVQYNITIYAVEENQESTPVVIQQETTGTPRSDTVPSPRDLQFVEVTDVKVTIMWTPPESAVTGYRVDVIPVNLPGEHGQRLPISRNTFAEVTGLSPGVTYYFKVFAVSHGRESKPLTAQQTTKLDAPTNLQFVNETDSTVLVRWTPPRAQITGYRLTVGLTRRGQPRQYNVGPSVSKYPLRNLQPASEYTVSLVAIKGNQESPKATGVFTTLQPGSSIPPYNTEVTETTIVITWTPAPRIGFKLGVRPSQGGEAPREVTSDSGSIVVSGLTPGVEYVYTIQVLRDGQERDAPIVNKVVTTSHHHHHHC									did not enhance	no binding	PDGF-BB binding (in words) (PDGF-BB [1]): did not; binding of any GF (in words) (GFs): In no case did any GF bind; support of FN-null fibroblast survival in the presence of PDGF-BB ([5]; substrate coating, FNIII8-11 alone or + named domain): did not support cell survival
FNIII12-13: FN type III repeats 12-13 (protein) AIPAPTDLKFTQVTPTSLSAQWTPPNVQLTGYRVRVTPKEKTGPMKEINLAPDSSSVVVSGLMVATKYEVSVYALKDTLTSRPAQGVVTTLENVSPPRRARVTDATETTITISWRTKTETITGFQVDAVPANGQTPIQRTIKPDVRSYTITGLQPGTDYKIYLYTLNDNARSSPVVIDAST	75 nM										
FNIII1-7: FN type III repeats 1-7 (protein) GPVEVFITETPSQPNSHPIQWNAPQPSHISKYILRWRPKNSVGRWKEATIPGHLNSYTIKGLKPGVVYEGQLISIQQYGHQEVTRFDFTTTSTSTPVTSNTVTGETTPFSPLVATSESVTEITASSFVVSWVSASDTVSGFRVEYELSEEGDEPQYLDLPSTATSVNIPDLLPGRKYIVNVYQISEDGEQSLILSTSQTTAPDAPPDTTVDQVDDTSIVVRWSRPQAPITGYRIVYSPSVEGSSTELNLPETANSVTLSDLQPGVQYNITIYAVEENQESTPVVIQQETTGTPRSDTVPSPRDLQFVEVTDVKVTIMWTPPESAVTGYRVDVIPVNLPGEHGQRLPISRNTFAEVTGLSPGVTYYFKVFAVSHGRESKPLTAQQTTKLDAPTNLQFVNETDSTVLVRWTPPRAQITGYRLTVGLTRRGQPRQYNVGPSVSKYPLRNLQPASEYTVSLVAIKGNQESPKATGVFTTLQPGSSIPPYNTEVTETTIVITWTPAPRIGFKLGVRPSQGGEAPREVTSDSGSIVVSGLTPGVEYVYTIQVLRDGQERDAPIVNKVVTPLSPPTNLHLEANPDTGVLTVSWERSTTPDITGYRITTTPTNGQQGNSLEEVVHADQSSCTFDNLSPGLEYNVSVYTVKDDKESVPISDTIIP	75 nM	100 nM		18 nM	4.1 nM			17 nM		all four GFs bound	TGF-β1 binding (in words) (TGF-β1 [4]; plasmon resonance): all four GFs bound; FGF-2 binding (in words) (FGF-2): all four GFs bound; VEGF binding (in words) (VEGF): all four GFs bound

From patent US8691944B2, “Fibronectin polypeptides and methods of use” (The Research Foundation for the State University of New York, priority 2005, dated 2014)
